The data set can be described thus: label from the status in PepcDB records.
As to “MSLLLTNHIGYERLGPKKAIIQTEQPHLSSYTAQLICATSEQTVATFAVEEQGKVANWHQGYFYLIDFSSFTDSGDYFLQVEDSRSSSFTVGEHILLEQTLSDVIHYFKSQRCGGVFDQQDRQVPVLNANQTADVHGGWYDASGDVSKYLSHLSYANYLNPQQTPMVVWNILKGLSLLEGSEDIAAFTRTRLIEEALFGADFLVRMQNEKGFFYMTVFDKWSKDTAQREICAYETQLGHKFDDYQAGFRQGGGVAIAALAAASRLGVHGEYDQQKYRNAAENGYWHLKEHNTQYLNDGEENIIDEYCALLASVELFKATKETRYLEESRLWAQRLVARQMSDEQIQHFWSANQDGSRPYFHAAEAGLPVIALCEYLAIEDDSVQTESVKRIVNRACEFEIKISNKVTNPFGYPRQYVKGVNESKRDAFFVAHNNESGYWWQGENARLGSLATMAYLAQPHIASQEIQQQLSVFAQDALNWIVGLNPYDMCMLDGHGRNNPDYLPQYGFFNAKGGVCNGITGGFEDEEDIAFNPPAQKDDMLQNWRWGEQWIPHGAWYLLAIMSQAQHISQLATSKNIKEGHHHHHH”, the protein production entry is “not failed”.
Turning to “MGVLDIVKAGVISGDELNKIYDYAKAEGFAIPAVNVVGTDSINAVLEAAKKVNSPVIIQFSNGGAKFYAGKNCPNGEVLGAISGAKHVHLLAKAYGVPVILHTDHAARKLLPWIDGLIEANAQYKKTHGQALFSSHMLDLSEESLEENLSTCEVYLQKLDALGVALEIELGCTGGEEDGVDNTGIDNSKLYTQPEDVALAYERLGKISDKFSIAASFGNVHGVYKPGNVSLQPEILKNSQKFVKDKFALNSDKPINFVFHGGSGSELKDIKNAVSYGVIKMNIDTDTQWAFWDGVREYELKNRAYLQGQIGNPEGDDKPNKKYYDPRVWLRSGEESMIKRLEIAFEDLNCINKN”, the protein production result is “not failed”.
With “MQAMTERLEAMLAQGTDNMLLRFTLGKTYAEHEQFDAALPHLRAALDFDPTYSVAWKWLGKTLQGQGDRAGARQAWESGLAAAQSRGDQQVVKELQVFLRRLAREDALEHHHHHH”, the protein production entry is on record as “not failed”.
“RPQTTDNWQNTEIEGIDIMLAVDVSTSMLAEDLKPNRLEAAKQVASEFINGRPNDNIGLTIFAGESFTQCPLTVDHGVLLNLFNSIKGDIAQRGLIEDGTAIGMGIANAVTRLKDSKAKSKVIILLTDGSNNRGDISPLTAAEIAKQFGIRIYTIGVGTNGTAPYPMQTYAGTQYVNVPVEIDEKTLTEIAGTTNGNYFRATSNSKLKEVYQEIDKLEKTKL”: the protein production result is “failed”.
As to “MIFMGNKVKYNLKNVHAAKLTETDSDGTTTFSYAEPKAIPGAVSISLDAEGETSPFYADGIVYFRSVTNNGYSGDLEIALIPEWFRTEILQEKLDAKGVLVENSGVGESVKFALLFEFDGDVNAIRHVLYNCSASRPSIESETKEDTIEPGTETLSITADPRSDGLVKARTGDTTDSGTYTNWYKAVYTPTEEEPEETSGEDESV”, the protein production result was “failed”.
As for “MSRVQMDTEEVREFVGHLERFKELLREEVNSLSNHFHNLESWRDARRDKFSEVLDNLKSTFNEFDEAAQEQIAWLKERIRVLEEDY”, the entry is “not failed”; as for “MAVARHETGPFATVSALASQVHPVFMLPPLATSLFGGLLSGGFWPPVAVLHAGAMFFAVYTAHVKDGYVDFHVRGEDDDHPLTGAGCRMALVGAGVGFALCTAAIWLLVGPGAALLTLPTWIIGYTHAPQLDMNPVGATMGYPAGIALALLGGYYAQVTTLTPRAVGLAAVFLLLLTGIKIIDDEQDYDYDRSIQKRTVAVVLGHQRARQLALGLFGVALLGIVGLSVALPGIPPSAAAAALVFGAVAAIAQRGDPETATMLLIRGSYLLLAVLVTAVWFRPLA”, “failed”.
The value for “MSSTKRQKNRVLVKLKKRKVRKDKIEKWAELALSALGLNNVELSVYITDDQEIRELNKTYRKKDKPTDVLSFPMGEEFGGYKILGDVVISQDTAERQARELGHSLEEEVKRLIVHGIVHLLGYDHEKGGEEEKKFRELENYVLSKLSKAL” was “not failed”.
Consider “MEKGVGFEKDMKTVSDGFVGGFFPVSTTKIAWKSRKRSALLNLDKAPEAVTEVTPEKNEITAMDTEKVGEPMTTTPLLSEKRKALFEPLEPITNLNGKRPTAADSLLPPPDFETANYPKGWLIGKKRKLVNVDVVESMRRIAVQEMNRKDREIDGLNEQLEEDSRCLEHLQLQLLQERSKRTEIERENTMLKEQVDMLVNMIQEDDEEGAEEP”, for which the protein production result is reported as “failed”.
In the case of “MEPGLRLLIQLVLEFAPVFVNILHKRSEESLTTARYQVPNLIQGFIETINNINDIDNSNKSLEQEKLWQQQLVAYQRETQAQIANQQRDTALKLPEVNKILDSWPLRLYPSQILESHHSYERKPLKVFIAPPKIHFDKFDNHVETYSEIELMLAEGLREFINENYSLHSPTRPIEFLAGAWDSKRFHSESSIKALFGMLKTEPILILESENDGDYLNFRIAYWGLTQGTYYYKTISRLPYKEIIQNSAKNRALEWKKVRDELLEIGVDVEEINEFGKDNVFNLAILEKAEKWQAQGIDISKLSLQYRVSQQDIEQLCQVLITCHCLVAAWVADIYHLGNHDIPPLLPELLPSLLKNAIDVQSLQAIASSYKQVYEALEKERLYWIPELSMQLAQSLSHLPDTSWAQAEVDYSINTWLELRQVSLQQFTSPLEAMQSVVKIEDEEYIQKLREYFTVIGDRHNLQFVEKLLEAIATLKYKRSLEYPYLTKTITGHSGKVKSVAISPDGEVIVSGCTDQTVNIWNLQTGKLIRTLTGNLGEVSSVAISPDGNFLAVGSGVHPRSNVKVWHLKTGKLLHTLLGHQKPVNVVVISPDGQILASGSNKIKIWNLQKGDGVPPTVGDRICTLWHSSAVHAIAISPDSTILASGSSDNKIRLWNPRTGDPLRTLNSHDNEVKAIAISRDGQFLFSGSADTTIKIWHLITGQILHTLTGHSGDIKSLTTSPNGQFLFSGSADTTIKIWRISTGELLHTLTGHSASVNSVAISPGGNLLASGSADQTIKIWQIDKI”, the protein production entry is “failed”.
For “MKKGVLIAFEGIDGSGKSSQATLLKDWIELKRDVYLTEWNSSDWIHDIIKEAKKKDLLTPLTFSLIHATDFSDRYERYILPMLKSGFIVISDRYIYTAYARDSVRGVDIDWVKKLYSFAIKPDITFYIRVSPDIALERIKKSKRKIKPQEAGADIFPGLSPEEGFLKYQGLITEVYDKLVKDENFIVIDGTKTPKEIQIQIRKFVGELIDNSF”, the protein production result is listed as “not failed”.
With “MRLVSLLPSATEIIAALGLLPFLVGRSHECDYPPEVKALPVCTRARLNAQQSSLAIDRVVQELLRAALGIYDLELATLQALKPTHIITQDQCDVCAVTLPDVQRAIADLLEPPPQLISLQPHCLEDIWEDIRRVGLTLGVAPDPLLTVLKERMRACQRRVSDRPRRQVVAIEWIDPPMASGNWIPELIALAGGENMLGTAGKHSPYIEWSTLLAIDPEVILVMPCGFDLERTRQELDQALQTYPQWQQLRALQTGQLYILDGNAYFNRPGPRLVDSLEILVEILHPCPEPKFHGVGWRPYVGPSMAKMSDEG”, the protein production result is on record as “failed”.
Regarding “EDKKGGTKPSNEAALTKTENLDFRLSFNKIKVTTDQNHFSGGTSIEQLKQWFGDPNKSEQRNAGNITLDSYTWVKDGAVINAQLYKNSTVARSISNFSFSREAKIGKEDYDELKIGESYKKVVEKLGEPDVLSQSMSSDKEEMQTVWSSGIKTKSSSATIELYFENGLLKNKTQKDLE”, the protein production entry is reported as “not failed”.
Regarding “MNIVSWKDANDEVAGGATTRREREVKEDQEETEVRATSGKTVIKKQPTSISSSSSSWMKSKDPRIVRVSRAFGGKDRHSKVCTLRGLRDRRVRLSVPTAIQLYDLQERLGVDQPSKAVDWLLDAAKEEIDELPPLPISPENFSIFNHHQSFLNLGQRPGQDPTQLGFKINGCVQKSTTTSREENDREKGENDVVYTNNHHVGSYGTYHNLEHHHHHHQHLSLQADYHSHQLHSLVPFPSQILVCPMTTSPTTTTIQSLFPSSSSAGSGTMETLDPRQMVSHFQMPLMGNSSSSSSQNISTLYSLLHGSSSNNGGRDIDNRMSSVQFNRTNSTTTANMSRHLGSERCTSRGSDHHM”, the protein production entry is on record as “failed”.
Consider “MSANPDRFLGRAEVYAAARPDYPPALGNELARRGLLRGQVADLGAGTGLFTRLLLQRGAQVIAVEPNPEMREQLLRALAAEVTRGQLRVQSGTAEATGLPGSSVDLLTAAQAAHWFDPAPTRREFQRVLRPGGQVLFVWNDWREADGPFNEAYGAVVAHFSPEEGRVRTRVPRDELAQWFSGAPEELSFDHPLTFTRERLHALAGSVSYLPAPGSERFPELLARLDQAFDRQARQDTVELTYRTFAFLGRV”, for which the protein production result is recorded as “failed”.
On to “DSALENPAQVRNYLKAQLRHEPHEVFACLFLDNKHRVMTFEILFRGTINASYVHPRQVVKRALAHNAASLILCHNHPSGITTPSRSDIDLTKRLKEALKLVDVHVLDHVIVGDGEPLSMVEKGLM”, for which the protein production entry was “not failed”.
“MGSTFFGRPNVVGSSPPSSSPTSSSSSPATRRGKKNGSEKPKQPQRGLGVAQLEKIRLHGEMSCNSFNSYNPSLYPQVTYTNTSLHNRDSDPKASKLIKTRYICV”: the protein production result is reported as “failed”.
For the sequence “MPGPKDLDPSSSPRALLGAELRHAREKSGLSQEELGARLFVSGSFIGQLESGTRRMQPEYARLLDDVLDTEDFFRRNCTASAKSKYPEHFAQAAEAEGTAREIKEYASMLIPGLLQTPAYARAVCRAYQPTAPDDAIEELVTARMERARMLADPTGPVLWAVVDESALRRSTGGPGVMAEALRHLAHLMRENRVIVQVLPFEAGAHPAMQGCVKLMDFADAPSLVYLEGVGTGRVDDDPATVGRYRFYYELLMVAALSTTKSLSLIEKLAQNYAHGDHP”, the protein production entry is “failed”.
As for “EQYGDLPPRVFECRLAMVQPSSVVSGNNRWSTAANDMLKTVAQCGLIDIEVYSLFNNVAAVLIHMRDGIINDKLVELMLCRRSDEDYMSRKDHDFRLRRQ”, the entry is “failed”.
The value for “MRIGGTTSPIASHSFYVATRGYMDKTQSEEKNRRPLAVRDLNFTKRIAVWLSQKQITPNQISLMSIAFALLGCAILAVYHYYPAPLWLILAALSIQARLLCNLFDGMVAVEGGKKTPAGELFNDVPDRIADPLLILGAGFVTTSALGMTLAWLCALLAVLTAYIRVLGVSIGGEADFQGPMAKQHRMALLTLSLLFIAALSLFDELPTFFAYTMDLTLIVMLIGLVLTVWRRLQHIYQFHAARASSSDHQGN” was “failed”.
For the sequence “TVLYVHGGAWFQDPLENHFEYLDLLVDALDARVIMPVYPKIPHRDYRTTFELLTKIYKRLLTKIDEPENLVIIGDSAGGQIALAFAQMLKKEQLSQPGHIVLISPVLDATFKNPEARKYEKEDPMLGIDGSKYLVELWAGDAPLDDYKMSPMNGDLEGLGHITLTVGTKETLYPDAVKFSHMLNDKGIKHQFIPGYNLFHIYPLFPIPERQRFLEQLKKIIVTKEL”, the protein production result was “failed”.
Regarding “MQTQVLFEHPLNEKMRTWLRIEFLIQQLTVNLPIVDHAGALHFFRNVSELLDVFERGEVRTELLKELDRQQRKLQTWIGVPGVDQSRIEALIQQLKAAGSVLISAPRIGQFLREDRLIALVRQRLSIPGGCCSFDLPTLHIWLHLPQAQRDCQVETWIASLNPLTQALTMVLDLIRQSAPFRKQTSLNGFYQDNGGDADLLRLNLSLDSQLYPQISGHKSRFAIRFMPLDTENGQVPERLDFELACC”, the protein production entry was “not failed”.
In the case of “MKVLESAPSRYDRGIRIITLGKLDEAYDRLTSRIKPGQRVLDVGCGTGALTLRAALRGARVKAIDINPQMLEIARKRVEEAGVTGMVELCEMGVAELNTEASEGYDAVMAGLCFSELTEDELSYALREIKRVLKPGALLLIADEAVPESPVKRVLSWLIRAPLAVIAYLLIQTTTRAVKNLPEKLGEEGFLIESVRRSFMEDFVEIVARKPGR”, the protein production result is on record as “failed”.

For the origin of these results see a protein production outcome set (Wang et al. 2014).
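Note: failed if final PepcDB status was selected cloned or expressed and not failed if soluble or beyond.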
